Consider seven molecules from patent US5679770A, “Polypeptide, DNA fragment encoding the same, drug composition containing the same and process for producing the same” (Mochida Pharmaceutical Co., Ltd., priority 1991, dated 1997).

This assay addresses T1, human FXa (Homo sapiens, UniProt P00742).
T1 construct: purchased American Diagnostica Inc
Description: FXa-inhibiting activity (synthetic substrate S-2222). Type of assay: biochemical. Conditions: relative to control AN68; concentration expressed as bovine trypsin-inhibiting activity. The method, then: The purified polypeptide of the present invention was dissolved in 100 μl of distilled water. Polypeptide concentration of this solution was determined based on its bovine trypsin-inhibiting activity measured in accordance with the above procedure (1) using the aforementioned UTI as a standard. The thus prepared solution was then diluted to various concentration levels with 0.1% BSA/150 mM NaCl/5 mM CaCl2 /50 mM Tris-HCl buffer (pH 8.3) for use in the activity measurement. Separately from this, a polypeptide TN70 (cf. Japanese Patent Application No. 3-325220) and polypeptide AN68 were purified respectively in accordance with the procedure of Example 2(4) from a culture supernatant of E. coli JE5505(pM552) (deposit No., FERM BP-3561) and E. coli JE5505(pM594) obtained by transforming E. coli JE5505 with the aforementioned plasmid pM594 obtained in Example 4. The thus purified polypeptide TN70 and AN68 were diluted to various concentration levels to be used as control solutions.
Using a synthetic compound S-2222 (Daiichi Pure Chemicals Co., Ltd.) as a substrate, FXa-inhibiting activities in the thus prepared test sample solution and control solution were measured in accordance with the method of Ohno et al. (Ohno H. et al., Thromb. Res., vol.19, pp.579-588, 1980) as follows. First, human FXa (American Diagnostica Inc.) was dissolved in distilled water to a final concentration of 10 PEU/ml and the solution was further diluted with the aforementioned 0.1% BSA/150 mM NaCl/5 mM CaCl2 /50 mM Tris-HCl buffer (pH 8.3) to prepare 0.1 PEU/ml of FXa solution. Separately from this, a 4 mM solution of S-2222 was prepared by dissolving it in distilled water and the solution was further diluted with the 0.1% BSA/150 mM NaCl/5 mM CaCl2 /50 mM Tris-HCl buffer (pH 8.3) to obtain a 2 mM solution of S-2222.
Next, 25 μl of the test sample or control solution was mixed with 100 μl of the 0.1% BSA/150 mM NaCl/5 mM CaCl2 /50 mM Tris-HCl buffer (pH 8.3) and 25 μl of the FXa solution. After incubating statically at 37° C. for 10 minutes, 100 μl of the S-2222 solution was added to start the reaction. The reaction was carried out at 37° C. for 30 minutes and then stopped by adding 50 μl of 50% acetic acid solution to the reaction mixture. Thereafter, absorbance at a wavelength of 405 nm was measured using a spectrophotometer. In this instance, in order to eliminate absorbancy of various contents in the reaction mixture other than the reaction product, a blank solution was prepared by mixing 25 μl of the FXa solution with 50 μl of 50% acetic acid and then with 25 μl of each test sample or the control solution, 100 μl of the 0.1% BSA/150 mM NaCl/5 mM CaCl2 /50 mM Tris-HCl buffer (pH 8.3) and with 100 μl of the S-2222 solution.
The results are shown in FIG. 45 to FIG. 53 and FIG. 66. In these figures, polypeptide concentration in the reaction solution was expressed as its bovine trypsin-inhibiting activity. Also, residual human FXa activity was expressed by percentage based on the absorbance of a control reaction mixture in which 25 μl of the 0.1% BSA/150 mM NaCl/5 mM CaCl2 /50 mM Tris-HCl buffer (pH 8.3) was used instead of the test sample.

T1 sequence (P00742 235-488 limits assumed): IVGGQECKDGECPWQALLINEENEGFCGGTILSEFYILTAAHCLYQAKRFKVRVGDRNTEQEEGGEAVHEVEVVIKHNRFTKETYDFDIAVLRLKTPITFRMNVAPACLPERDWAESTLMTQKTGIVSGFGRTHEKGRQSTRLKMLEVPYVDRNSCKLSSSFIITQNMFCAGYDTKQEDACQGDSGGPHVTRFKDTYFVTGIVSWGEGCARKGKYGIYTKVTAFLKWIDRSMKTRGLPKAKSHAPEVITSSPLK
T1 sequence (P00742 41-179 partner limits assumed): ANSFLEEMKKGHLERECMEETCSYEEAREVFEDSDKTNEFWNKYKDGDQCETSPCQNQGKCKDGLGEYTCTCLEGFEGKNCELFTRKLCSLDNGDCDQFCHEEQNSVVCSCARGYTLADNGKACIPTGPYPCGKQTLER

B1: R11Q/Q19K/Y46D: formula 1 sequence with Gln for position 7 Arg, Lys for position 15 Gln, Asp for position 42 Tyr; SEQ. I.D. NO. 37 (protein)
chain: AACNLPIVQGPCRAFIKLWAFDAVKGKCVLFPYGGCQGNGNKFDSEKECREYCGVPGDGDEELLRFSN
As to B1, the “FXa-inhibiting activity, times higher than that of polypeptide AN68” value (from here on “FXa-inhibiting activity”) is listed as “about twenty”.

B2: R11L/Q19K/Y46D: formula 1 sequence with Leu for position 7 Arg, Lys for position 15 Gln, Asp for position 42 Tyr; SEQ. I.D. NO. 39 (protein)
chain: AACNLPIVLGPCRAFIKLWAFDAVKGKCVLFPYGGCQGNGNKFDSEKECREYCGVPGDGDEELLRFSN
For B2, the “FXa-inhibiting activity” value is reported as “about 16 times”.

B3: R11D/Q19K/Y46D: formula 1 sequence with Asp for position 7 Arg, Lys for position 15 Gln, Asp for position 42 Tyr; SEQ. I.D. NO. 38 (protein)
chain: AACNLPIVDGPCRAFIKLWAFDAVKGKCVLFPYGGCQGNGNKFDSEKECREYCGVPGDGDEELLRFSN
Regarding B3, the “FXa-inhibiting activity” value is reported as “about 5 times”.

B4: R11N/Q19K/Y46D: formula 1 sequence with Asn for position 7 Arg, Lys for position 15 Gln, Asp for position 42 Tyr; SEQ. I.D. NO. 41 (protein)
chain: AACNLPIVNGPCRAFIKLWAFDAVKGKCVLFPYGGCQGNGNKFDSEKECREYCGVPGDGDEELLRFSN
Consider B4, for which the “FXa-inhibiting activity” value is listed as “about 10 times”.

B5: R11A/Q19K/Y46D: formula 1 sequence with Ala for position 7 Arg, Lys for position 15 Gln, Asp for position 42 Tyr; SEQ. I.D. NO. 43 (protein)
chain: AACNLPIVAGPCRAFIKLWAFDAVKGKCVLFPYGGCQGNGNKFDSEKECREYCGVPGDGDEELLRFSN
Turning to B5, the “FXa-inhibiting activity” value is recorded as “about 9 times”.

B6: R11E/Q19K/Y46E: formula 1 sequence with Glu for position 7 Arg, Lys for position 15 Gln, Glu for position 42 Tyr; SEQ. I.D. NO. 40 (protein)
chain: AACNLPIVEGPCRAFIKLWAFDAVKGKCVLFPYGGCQGNGNKFESEKECREYCGVPGDGDEELLRFSN
In the case of B6, the “FXa-inhibiting activity” value was “about 13 times”.

B7: R11S/Q19K/Y46D: formula 1 sequence with Ser for position 7 Arg, Lys for position 15 Gln, Asp for position 42 Tyr; SEQ. I.D. NO. 42 (protein)
chain: AACNLPIVSGPCRAFIKLWAFDAVKGKCVLFPYGGCQGNGNKFDSEKECREYCGVPGDGDEELLRFSN
Consider B7, for which the “FXa-inhibiting activity” value is listed as “about 8 times”.
